Biological target: GST-CjWRKY1 (Coptis japonica, UniProt A0ZT25 1-185)
Test: EMSA; poly(dI-dC) 0.05 ug/ul; 3 ug protein, 20 fmol probe; EMSA: 1x LightShift binding buffer, 1 mM MgCl2, 0.5 mM EDTA, 0.05 ug/ul poly(dI-dC), 20 min at 4 C; pH not stated
Conditions: protein: recombinant; tags: GST (N-terminal, pGEX-6P-1); label: biotin (sense and antisense oligonucleotides)

Sequence of GST-CjWRKY1 (A0ZT25 entry or part of it): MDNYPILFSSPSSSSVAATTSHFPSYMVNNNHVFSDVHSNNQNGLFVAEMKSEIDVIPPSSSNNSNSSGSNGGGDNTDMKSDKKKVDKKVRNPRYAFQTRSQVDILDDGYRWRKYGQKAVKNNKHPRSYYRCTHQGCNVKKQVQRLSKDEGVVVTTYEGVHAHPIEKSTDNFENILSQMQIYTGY

B1: 3x W-box probe (W2 of CYP80B2 promoter) (dsDNA)
DNA 1: CTGCTGACTAGCTGACTAGCTGACTAGATGG
DNA 2: CCATCTAGTCAGCTAGTCAGCTAGTCAGCAG
  binding result: binds

— publication PMC5009119, “Characterization of the Promoter Region of Biosynthetic Enzyme Genes Involved in Berberine Biosynthesis in Coptis japonica”
